Experimental data taken from patent US20250262210A1 (TRUSTEES OF COLUMBIA UNIVERSITY IN THE CITY OF NEW YORK, published 2025).

Tests used:
Assay in all cases: IP/MS, LZTR1 R810W-FLAG, U87
ABR = target: T1, ABR (human, UniProt Q12979 1-859, limits assumed)
T1 sequence (looked up): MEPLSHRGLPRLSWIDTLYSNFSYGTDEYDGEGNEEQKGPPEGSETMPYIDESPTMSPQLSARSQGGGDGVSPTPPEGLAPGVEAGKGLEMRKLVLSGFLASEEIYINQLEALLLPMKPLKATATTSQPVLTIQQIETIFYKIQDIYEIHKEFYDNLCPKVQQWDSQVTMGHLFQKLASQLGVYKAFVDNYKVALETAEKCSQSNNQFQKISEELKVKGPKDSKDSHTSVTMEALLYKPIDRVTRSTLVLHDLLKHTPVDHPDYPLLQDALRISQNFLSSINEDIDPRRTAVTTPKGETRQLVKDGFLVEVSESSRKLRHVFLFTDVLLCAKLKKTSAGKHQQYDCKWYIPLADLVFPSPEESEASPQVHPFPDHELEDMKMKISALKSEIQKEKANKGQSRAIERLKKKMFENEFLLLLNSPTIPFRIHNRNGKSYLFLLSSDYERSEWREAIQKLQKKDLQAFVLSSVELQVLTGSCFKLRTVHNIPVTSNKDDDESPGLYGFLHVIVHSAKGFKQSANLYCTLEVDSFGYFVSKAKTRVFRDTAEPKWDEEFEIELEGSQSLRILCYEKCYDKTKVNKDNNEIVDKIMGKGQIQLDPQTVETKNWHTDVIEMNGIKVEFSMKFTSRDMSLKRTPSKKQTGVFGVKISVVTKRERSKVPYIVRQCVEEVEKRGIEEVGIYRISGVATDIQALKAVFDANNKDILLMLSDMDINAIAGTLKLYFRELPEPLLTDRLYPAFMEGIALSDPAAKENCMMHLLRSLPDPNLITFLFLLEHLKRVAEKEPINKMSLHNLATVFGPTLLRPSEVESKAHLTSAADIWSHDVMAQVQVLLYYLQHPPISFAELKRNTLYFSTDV
Outline: (§1)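 Gel slices were reduced with 5 mM DTT, alkylated with 11 mM IAA and digested overnight at 37° C. with trypsin. Peptides were analysed on an Orbitrap Fusion Tribrid by LC-MS/MS.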

DMXL2 = DMXL2 (human, UniProt Q8TDJ6 1-3036, limits assumed)
Outline: as §1

TUBGCP2 = TUBGCP2 (human, UniProt Q9BSJ2 1-902, limits assumed)
Outline: as §1

CC2D1A = target: T2, CC2D1A (human, UniProt Q6P1N0 1-951, limits assumed)
T2 sequence (looked up): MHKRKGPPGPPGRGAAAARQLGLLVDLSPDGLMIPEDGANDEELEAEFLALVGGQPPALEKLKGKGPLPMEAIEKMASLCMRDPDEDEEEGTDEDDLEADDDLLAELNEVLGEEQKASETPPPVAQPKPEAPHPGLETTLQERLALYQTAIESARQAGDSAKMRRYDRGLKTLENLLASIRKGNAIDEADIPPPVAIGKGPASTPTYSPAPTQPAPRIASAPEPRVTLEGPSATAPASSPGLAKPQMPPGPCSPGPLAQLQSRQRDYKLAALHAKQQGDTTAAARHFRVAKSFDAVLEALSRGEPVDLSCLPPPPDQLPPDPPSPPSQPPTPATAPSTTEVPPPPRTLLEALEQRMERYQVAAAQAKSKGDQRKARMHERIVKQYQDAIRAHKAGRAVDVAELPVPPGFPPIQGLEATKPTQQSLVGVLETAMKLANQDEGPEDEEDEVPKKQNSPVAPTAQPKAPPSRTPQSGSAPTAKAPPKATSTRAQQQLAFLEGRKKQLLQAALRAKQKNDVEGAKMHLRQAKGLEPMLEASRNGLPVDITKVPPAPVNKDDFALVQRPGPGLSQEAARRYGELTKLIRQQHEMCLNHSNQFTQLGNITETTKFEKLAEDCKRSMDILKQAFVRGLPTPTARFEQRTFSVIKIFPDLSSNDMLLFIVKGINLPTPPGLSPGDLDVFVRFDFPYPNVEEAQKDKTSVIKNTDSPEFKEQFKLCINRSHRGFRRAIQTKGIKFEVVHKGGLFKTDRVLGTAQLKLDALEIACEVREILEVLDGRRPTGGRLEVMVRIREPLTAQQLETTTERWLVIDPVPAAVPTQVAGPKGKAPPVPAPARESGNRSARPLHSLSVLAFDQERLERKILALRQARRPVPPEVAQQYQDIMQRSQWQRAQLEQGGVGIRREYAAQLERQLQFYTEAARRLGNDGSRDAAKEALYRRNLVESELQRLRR
Outline: as §1

KIF1B = KIF1B (human, UniProt O60333 2-1816, limits assumed)
Outline: as §1

Measured: binding result

KIF1B, sequence (O60333 2-1816 limits assumed): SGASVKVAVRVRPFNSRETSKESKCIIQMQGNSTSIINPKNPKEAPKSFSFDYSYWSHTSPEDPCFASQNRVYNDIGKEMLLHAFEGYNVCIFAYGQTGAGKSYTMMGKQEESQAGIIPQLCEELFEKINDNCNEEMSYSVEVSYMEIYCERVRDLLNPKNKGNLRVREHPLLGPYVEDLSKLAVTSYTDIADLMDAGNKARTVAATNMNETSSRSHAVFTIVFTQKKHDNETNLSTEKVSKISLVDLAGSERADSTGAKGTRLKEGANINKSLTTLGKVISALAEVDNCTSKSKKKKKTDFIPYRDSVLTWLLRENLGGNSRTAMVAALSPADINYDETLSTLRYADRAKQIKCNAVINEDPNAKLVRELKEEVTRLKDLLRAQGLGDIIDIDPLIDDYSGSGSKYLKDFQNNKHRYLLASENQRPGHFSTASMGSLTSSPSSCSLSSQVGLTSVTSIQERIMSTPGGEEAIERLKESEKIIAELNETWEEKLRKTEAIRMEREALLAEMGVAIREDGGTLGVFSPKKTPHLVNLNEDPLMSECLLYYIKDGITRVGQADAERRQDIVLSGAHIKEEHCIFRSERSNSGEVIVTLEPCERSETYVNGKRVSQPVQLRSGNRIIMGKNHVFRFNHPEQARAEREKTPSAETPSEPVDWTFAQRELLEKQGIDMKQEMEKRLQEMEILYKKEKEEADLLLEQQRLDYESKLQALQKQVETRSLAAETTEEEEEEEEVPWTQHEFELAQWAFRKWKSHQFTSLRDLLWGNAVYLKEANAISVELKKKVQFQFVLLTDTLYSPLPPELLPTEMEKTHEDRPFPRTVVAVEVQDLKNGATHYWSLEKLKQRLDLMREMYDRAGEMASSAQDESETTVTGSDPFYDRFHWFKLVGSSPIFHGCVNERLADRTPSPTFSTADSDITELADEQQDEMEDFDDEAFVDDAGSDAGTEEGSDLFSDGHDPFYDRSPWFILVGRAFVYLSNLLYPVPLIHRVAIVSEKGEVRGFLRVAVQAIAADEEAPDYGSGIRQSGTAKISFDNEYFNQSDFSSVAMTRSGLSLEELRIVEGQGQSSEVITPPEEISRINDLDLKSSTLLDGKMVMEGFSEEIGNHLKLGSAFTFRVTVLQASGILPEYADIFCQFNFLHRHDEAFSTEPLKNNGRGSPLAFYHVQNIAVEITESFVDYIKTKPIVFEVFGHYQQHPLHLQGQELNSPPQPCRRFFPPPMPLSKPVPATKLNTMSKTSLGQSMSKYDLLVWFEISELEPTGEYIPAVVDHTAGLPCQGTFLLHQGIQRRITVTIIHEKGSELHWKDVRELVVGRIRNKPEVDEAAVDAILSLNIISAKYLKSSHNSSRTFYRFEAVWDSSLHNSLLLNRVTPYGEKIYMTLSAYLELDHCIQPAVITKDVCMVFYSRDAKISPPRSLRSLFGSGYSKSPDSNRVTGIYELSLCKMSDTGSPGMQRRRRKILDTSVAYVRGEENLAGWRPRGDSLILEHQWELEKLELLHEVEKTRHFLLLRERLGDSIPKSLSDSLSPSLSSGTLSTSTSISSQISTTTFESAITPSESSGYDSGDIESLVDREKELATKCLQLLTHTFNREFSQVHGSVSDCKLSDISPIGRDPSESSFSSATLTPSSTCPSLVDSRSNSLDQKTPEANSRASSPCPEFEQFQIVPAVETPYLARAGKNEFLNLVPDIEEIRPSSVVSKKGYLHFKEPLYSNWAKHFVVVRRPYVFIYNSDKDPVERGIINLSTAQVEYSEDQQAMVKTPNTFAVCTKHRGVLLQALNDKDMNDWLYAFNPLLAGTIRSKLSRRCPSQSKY
DMXL2, sequence (Q8TDJ6 whole entry): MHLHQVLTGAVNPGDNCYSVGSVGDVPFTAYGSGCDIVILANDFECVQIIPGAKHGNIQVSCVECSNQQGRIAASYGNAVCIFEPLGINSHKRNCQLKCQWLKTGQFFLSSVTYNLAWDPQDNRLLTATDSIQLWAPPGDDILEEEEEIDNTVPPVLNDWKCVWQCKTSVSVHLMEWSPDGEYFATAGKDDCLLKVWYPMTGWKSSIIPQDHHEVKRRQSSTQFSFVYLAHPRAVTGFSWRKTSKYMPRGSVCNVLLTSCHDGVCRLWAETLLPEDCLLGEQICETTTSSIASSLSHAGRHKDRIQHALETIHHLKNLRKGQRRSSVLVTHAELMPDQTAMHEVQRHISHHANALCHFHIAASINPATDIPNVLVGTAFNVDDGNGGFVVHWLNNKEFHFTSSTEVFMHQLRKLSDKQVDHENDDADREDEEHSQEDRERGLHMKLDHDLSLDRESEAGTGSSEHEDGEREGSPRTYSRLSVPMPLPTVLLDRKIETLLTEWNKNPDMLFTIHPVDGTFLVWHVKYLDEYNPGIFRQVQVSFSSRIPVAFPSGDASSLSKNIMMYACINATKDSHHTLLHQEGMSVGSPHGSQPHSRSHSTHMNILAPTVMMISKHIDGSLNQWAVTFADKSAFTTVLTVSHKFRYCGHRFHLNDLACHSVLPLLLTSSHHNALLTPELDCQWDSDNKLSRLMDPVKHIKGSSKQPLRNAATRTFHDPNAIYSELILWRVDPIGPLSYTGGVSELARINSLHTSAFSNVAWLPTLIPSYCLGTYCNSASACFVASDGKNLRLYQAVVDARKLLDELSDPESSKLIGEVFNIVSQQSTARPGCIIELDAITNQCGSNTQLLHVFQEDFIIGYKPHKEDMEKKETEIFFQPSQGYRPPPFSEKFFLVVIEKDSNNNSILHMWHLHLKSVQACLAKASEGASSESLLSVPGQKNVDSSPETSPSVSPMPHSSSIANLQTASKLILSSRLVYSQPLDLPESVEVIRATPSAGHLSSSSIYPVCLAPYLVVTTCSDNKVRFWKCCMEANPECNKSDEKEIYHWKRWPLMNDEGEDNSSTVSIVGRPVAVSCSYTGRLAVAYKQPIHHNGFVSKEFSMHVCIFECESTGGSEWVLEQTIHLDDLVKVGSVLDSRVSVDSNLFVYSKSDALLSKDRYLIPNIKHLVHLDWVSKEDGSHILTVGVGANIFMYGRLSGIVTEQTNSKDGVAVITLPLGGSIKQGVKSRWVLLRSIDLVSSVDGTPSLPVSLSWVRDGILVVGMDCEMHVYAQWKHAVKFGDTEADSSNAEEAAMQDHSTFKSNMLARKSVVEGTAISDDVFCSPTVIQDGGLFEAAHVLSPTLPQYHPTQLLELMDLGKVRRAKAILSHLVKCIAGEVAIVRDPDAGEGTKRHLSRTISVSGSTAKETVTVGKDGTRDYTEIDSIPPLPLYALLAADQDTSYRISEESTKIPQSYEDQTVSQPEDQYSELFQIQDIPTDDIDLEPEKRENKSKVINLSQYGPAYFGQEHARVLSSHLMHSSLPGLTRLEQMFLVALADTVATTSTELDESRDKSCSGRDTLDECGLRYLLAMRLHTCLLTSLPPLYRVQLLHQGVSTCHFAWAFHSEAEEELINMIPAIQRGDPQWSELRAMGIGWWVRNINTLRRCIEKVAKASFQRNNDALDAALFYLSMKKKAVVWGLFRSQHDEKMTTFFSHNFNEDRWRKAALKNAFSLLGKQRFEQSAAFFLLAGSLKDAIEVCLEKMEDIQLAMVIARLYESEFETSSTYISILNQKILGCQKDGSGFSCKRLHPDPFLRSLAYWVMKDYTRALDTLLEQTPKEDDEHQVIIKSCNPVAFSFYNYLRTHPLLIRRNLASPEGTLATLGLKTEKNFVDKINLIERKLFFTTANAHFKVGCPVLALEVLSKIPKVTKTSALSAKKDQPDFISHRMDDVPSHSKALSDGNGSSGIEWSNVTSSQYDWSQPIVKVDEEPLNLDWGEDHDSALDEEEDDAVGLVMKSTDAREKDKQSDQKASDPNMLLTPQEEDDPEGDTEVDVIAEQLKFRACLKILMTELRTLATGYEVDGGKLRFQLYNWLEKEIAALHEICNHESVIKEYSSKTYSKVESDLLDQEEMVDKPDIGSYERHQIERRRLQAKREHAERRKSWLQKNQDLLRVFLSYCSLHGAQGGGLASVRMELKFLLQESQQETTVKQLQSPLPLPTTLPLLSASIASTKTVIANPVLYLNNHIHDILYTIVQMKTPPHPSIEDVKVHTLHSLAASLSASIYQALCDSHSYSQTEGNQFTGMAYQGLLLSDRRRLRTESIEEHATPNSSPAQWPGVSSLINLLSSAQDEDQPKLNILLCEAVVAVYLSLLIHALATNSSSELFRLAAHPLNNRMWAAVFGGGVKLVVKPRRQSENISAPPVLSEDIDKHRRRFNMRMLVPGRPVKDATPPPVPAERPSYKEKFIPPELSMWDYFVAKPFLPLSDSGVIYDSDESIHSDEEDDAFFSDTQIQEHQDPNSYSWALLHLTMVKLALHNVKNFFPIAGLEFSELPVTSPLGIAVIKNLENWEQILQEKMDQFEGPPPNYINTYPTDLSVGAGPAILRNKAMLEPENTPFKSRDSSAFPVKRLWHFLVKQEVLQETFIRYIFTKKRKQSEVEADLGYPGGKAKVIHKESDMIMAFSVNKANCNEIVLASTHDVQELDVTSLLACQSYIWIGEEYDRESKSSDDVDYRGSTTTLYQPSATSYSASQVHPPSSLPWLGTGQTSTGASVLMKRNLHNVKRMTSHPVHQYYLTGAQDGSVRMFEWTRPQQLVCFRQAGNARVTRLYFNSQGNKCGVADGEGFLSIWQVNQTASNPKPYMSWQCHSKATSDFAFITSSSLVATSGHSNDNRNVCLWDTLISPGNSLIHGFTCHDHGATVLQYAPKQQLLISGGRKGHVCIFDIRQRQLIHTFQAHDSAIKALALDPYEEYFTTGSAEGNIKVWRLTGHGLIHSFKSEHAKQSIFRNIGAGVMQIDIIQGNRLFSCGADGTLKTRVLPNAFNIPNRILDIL

B1: LZTR1 R810W-FLAG (other, human, UniProt Q8N653 1-840, looked up)
chain: MAGPGSTGGQIGAAALAGGARSKVAPSVDFDHSCSDSVEYLTLNFGPFETVHRWRRLPPCDEFVGARRSKHTVVAYKDAIYVFGGDNGKTMLNDLLRFDVKDCSWCRAFTTGTPPAPRYHHSAVVYGSSMFVFGGYTGDIYSNSNLKNKNDLFEYKFATGQWTEWKIEGRLPVARSAHGATVYSDKLWIFAGYDGNARLNDMWTIGLQDRELTCWEEVAQSGEIPPSCCNFPVAVCRDKMFVFSGQSGAKITNNLFQFEFKDKTWTRIPTEHLLRGSPPPPQRRYGHTMVAFDRHLYVFGGAADNTLPNELHCYDVDFQTWEVVQPSSDSEVGGAEVPERACASEEVPTLTYEERVGFKKSRDVFGLDFGTTSAKQPTQPASELPSGRLFHAAAVISDAMYIFGGTVDNNIRSGEMYRFQFSCYPKCTLHEDYGRLWESRQFCDVEFVLGEKEECVQGHVAIVTARSRWLRRKITQARERLAQKLEQEAAPVPREAPGVAAGGARPPLLHVAIREAEARPFEVLMQFLYTDKIKYPRKGHVEDVLLIMDVYKLALSFQLCRLEQLCRQYIEASVDLQNVLVVCESAARLQLSQLKEHCLNFVVKESHFNQVIMMKEFERLSSPLIVEIVRRKQQPPPRTPLDQPVDIGTSLIQDMKAYLEGAGAEFCDITLLLDGHPRPAHKAILAARSSYFEAMFRSFMPEDGQVNISIGEMVPSRQAFESMLRYIYYGEVNMPPEDSLYLFAAPYYYGFYNNRLQAYCKQNLEMNVTVQNVLQILEAADKTQALDMKRHCLHIIVHQFTKVSKLPTLWSLSQQLLLDIIDSLASHISDKQCAELGADI
notes: Stably expressed in U87 cells by lentivirus; also called LZTR1-FLAG-R810W; LZTR1 RW; not shown: FLAG tag
binds: ABR | DMXL2 | TUBGCP2 | CC2D1A | KIF1B
